Measurements taken from publication PMC1784095.

How the values were obtained:
[1] = target: T1, ArgR (Escherichia coli K-12 W3110) (UniProt P0A6D0); assay: EMSA; conditions: Crp EMSA: 10 mM Tris-HCl pH 8.0, 50 mM KCl, 1 mM EDTA, 0.1 mM DTT, 50 ug/ml BSA, 10 ug/ml poly(dI-dC), 12.5% glycerol, cAMP (20 uM in Results, 20 mM in Methods …)
T1 sequence: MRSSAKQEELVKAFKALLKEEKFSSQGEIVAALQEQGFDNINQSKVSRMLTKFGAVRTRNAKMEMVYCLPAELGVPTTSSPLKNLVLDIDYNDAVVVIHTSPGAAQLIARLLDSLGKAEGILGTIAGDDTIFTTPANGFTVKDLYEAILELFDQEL

[2] = test system: Crp (Escherichia coli K-12 W3110); assay: EMSA; conditions: 20 uM cAMP; apparent Kd; Crp EMSA: 10 mM Tris-HCl pH 8.0, 50 mM KCl, 1 mM EDTA, 0.1 mM DTT, 50 ug/ml BSA, 10 ug/ml poly(dI-dC), 12.5% glycerol, cAMP (20 uM in Results, 20 mM in Methods …)

Row | Substance | Kd [1] [nM] | Kd ([1]; 5 mM L-arginine, apparent Kd, Hill 2.0) [nM] | Kd [2] [nM]
1 | AATTCGGCGATGACCTGGATCAATCGTCCCGGCCTGCTTTTATCAACTGCATAATCAATCAAAATTACCGAAATTTCATGCATAATCACATAAATCACTTTTGCTTATCTTGTGTCAGATTTTTTTATCTCCTGATGGATTTTAGGCAAAAACAGTAGCATGAAACGTCATTACCAATTAAGGCAGTATAAAATGCTGGTTTTGTCGTCAGTTCAAGGCAGGATAAGGGTTAACACACCTTTATGACAGTCAGGAATTGACTGTTTCTCTAACGACTTC (double strand) [PgltB -406 to -128] | 1.7 | – | –
2 | PgltB -406 to +246 | – | 1.8 | 35
